Measured values: patent publication US9951110B2, “Neuropeptides useful as insecticides” (THE STATE OF ISRAEL, MINISTRY OF AGRICULTURE & RURAL …, priority 2013, dated 2018)
Ends that are not written are not given here.

Columns and labels:
[1] = test system: Heliothis peltigera female moths; assay: Topical application of agonistic peptides: stimulation of sex pheromone biosynthesis (solvent effect on penetrability); format: in vivo
Description: FIG. 6. is a graph showing the effect of a topically applied peptide (Peptide 12 in Table 1) on stimulation of sex pheromone biosynthesis in Heliothis peltigera female moths. • The peptide was tested at a concentration of 300 pmol and was applied in DDW, DMSO and IIS for different times (ranging from 0.5 to 7 h). • Statistical analysis compared pheromone content in the presence of the peptide in a given solvent (DDW, DMSO or IIS) at different time points (indicated by small black letters) and between solvents at the same time point (indicated by capital light grey letters). […] FIG. 7A and FIG. 7B are graphs showing the dose-response of a topically applied peptide [Peptide 12 (7A) and Peptide 11 (7B)] on stimulation of sex pheromone biosynthesis in Heliothis peltigera female moths. The peptide was tested at the indicated concentrations and was applied in DDW, IIS and DMSO for 3 h. • Statistical analysis compared pheromone content in the presence of the peptide in a given solvent (DDW, DMSO or IIS) at different concentrations (indicated by black letters) and between solvents at the same concentration (indicated by capital light grey letters). […] The tested peptides are applied onto the insect (e.g. moths) at scotophase (when pheromone is naturally synthesized) in a given solvent for the indicated times. Examination of the effect of carrier solvent on penetrability and activity was tested as a function of time and concentration with peptides 11 and 12 (see Table 1) which are agonistic peptides, i.e. stimulate sex pheromone production in female moths.

[2] = test system: Heliothis peltigera female moths; assay: Environmental (outdoor storage) stability, read out as sex pheromone production after injection; format: physicochemical; conditions: for stability: pheromone-stimulating activity after storage vs peptide stored at -80° C.: direct sunlight, about 31° C.; for stability in the course of storage: 4 weeks
Description: FIG. 9. is a graph showing the stability of Peptide 12 in a powder form under different storage conditions. • The stability was evaluated by determining sex pheromone production in Heliothis peltigera females exposed to said peptide. • The storage conditions are: (i) exposure to direct sunlight and an average temperature of about 31° C. for 1 week (“outdoor 1 week”); (ii) room temperature (RT); and (iii) −80° C. • Sex pheromone content is expressed as a percentage of the pheromone content obtained by injection of a peptide stored at −80° C. (defined as 100%). Statistical analysis compared pheromone content generated by injection of a peptide stored at room temperature (RT) for 1 week or a peptide kept for 1 week outdoors with that of the control (a peptide stored at −80° C.). […] FIG. 10A and FIG. 10B are graphs showing the stability of Peptide 12 dissolved in DDW or ITS at a concentration of 1 nmol (10A) or 100 pmol (10B) under different storage conditions. • The stability was evaluated by determining sex pheromone production in Heliothis peltigera females exposed to said peptide. • The storage conditions are: (i) exposure to direct sunlight and an average temperature of about 31° C. for 1 week (“outdoor 1 week”); and (ii) −80° C. • Sex pheromone content is expressed as a percentage of the pheromone content obtained by injection of a peptide stored as a dry powder at −80° C. (defined as 100%). Statistical analysis compared the pheromone content generated by the different treatments with that of the control (a peptide stored at −80° C.). […] FIG. 11A and FIG. 11B are graphs showing the stability of Peptide 12 dissolved in DDW (A) or IIS (B) at a concentration of 1 nmol, and exposed to direct sunlight and temperatures in the range of 27° C. to 31° C. for 1-4 weeks or by a peptide stored at 4° C. for 1-4 weeks. • The stability was evaluated by determining sex pheromone production in Heliothis peltigera females exposed to said peptide. • Activity is expressed as a percentage of that obtained by Peptide 12 stored at −80° C. (defined as 100%, not shown in the figures). • Statistical analysis compared activity at the same storage time at 4° C. and outdoor, and as a function of time within the same treatment (outdoor or 4° C.) as a function of storage time (capital letters). […] This assay is used to test the agonistic properties of the tested peptides (in adult females), and to determine the peptides melanotropic agonistic or antagonistic properties (in larvae). It was also used to determine the activity of peptides that were stored outdoors for different amounts of time. In order to evaluate the environmental stability of the peptides, peptide 12 (in Table 1) was tested. Stability was monitored by exposing a tube containing the peptide, either in the form of a dry powder or in solution made up in either DDW or IIS at a concentration of 100 pmol or 1 nmol, to direct sun light and a temperature range of 27 to 31° C. (“outdoor”). […] Similar results were obtained at a lower dose of the peptide, of 100 pmol (FIG. 10B). The peptide was also tested for stability for 4 weeks when dissolved in either DDW or IIS, at a concentration of 1 nmol, under the same conditions as above at a temperature range of 27° C. to 31° C.

| Substance | stimulation of sex pheromone biosynthesis: effect of carrier on bioavailability ([1]; 300 pmol, DDW, DMSO and IIS, 0.5 to 7 h) | stimulation of sex pheromone biosynthesis, dose response by carrier ([1]; 3 h, DDW, IIS, DMSO) | stability: pheromone-stimulating activity after storage vs peptide stored at -80° C. ([2]; dissolved in DDW or IIS, 100 pmol, 1 week) | activity of peptide kept outdoor vs at 4° C. at the same storage time ([2]; dissolved in DDW or IIS, 1 nmol, 1-4 weeks) | stability: pheromone-stimulating activity after storage vs peptide stored at -80° C. ([2]; dissolved in DDW or IIS, 1 nmol, 1 week) | stability in the course of storage ([2]; dissolved in DDW, 1 nmol, outdoor 27° C. to 31° C. or 4° C.) | stability in the course of storage ([2]; dissolved in IIS, 1 nmol, outdoor 27° C. to 31° C.) | stability: pheromone-stimulating activity after storage vs peptide stored at -80° C. ([2]; dry powder, 1 week, or room temperature) | stimulation of sex pheromone biosynthesis ([1]; 3 h, in DDW and IIS) | stimulation of sex pheromone biosynthesis ([1]; 3 h, in DMSO) |
| --- | --- | --- | --- | --- | --- | --- | --- | --- | --- | --- |
| Acetyl-Tyr-Phe-Trp-Pro-Arg-Leu-amide (Ac-YFWPRL-NH2) [Peptide 12, agonistic peptide lacking a dPhe residue, tested for bioavailability and environmental stability] | IIS has been found to be the best carrier | higher activity in IIS compared to DDW or DMSO | no significant difference | No differences | no significant difference | the activity dropped in the course of storage | much more stable | no significant difference | – | – |
| Tyr-Phe-Trp-Pro-Arg-Leu-amide (YFWPRL-NH2) [Peptide 11, agonistic peptide lacking a dPhe residue, tested for bioavailability] | – | – | – | – | – | – | – | – | barely any activity | very active |
